Assay results published in patent US20230279079A1.

Assays:
[1] = target: spike glycoprotein of wild type SARS-CoV-2 virus (SARS-CoV-2) (UniProt P0DTC2); test: cell-based or functional assay
RBD-VLP (SARS-CoV-2) = RBD-VLP (SARS-CoV-2) (UniProt P0DTC2)

Substance	Neutralization by PRNT EC50 [1] [nM]	IC50 (RBD-VLP (SARS-CoV-2)) [nM]
CR3022 (antibody)	42	
VHH72-Fc		2
